Data reported in patent publication US20020090696.

How the values were obtained:
[1] = target: GST [GST: P08515]
[2] = target: GST-2.5 fusion protein [GST: P08515]

B1: Rat SAPKβ (protein)
chain: MSLHFLYYCSEPTLDVKIAFCQGFDKHVDVSSVVKHYNMSKSKVDNQFYSVEVGDSTFTVLKRYQNLKPIGSGAQGIVCAAYDAVLDRNVAIKKLSRPFQNQTHAKRAYRELVLMKCVNHKNIISLLNVFTPQKTLEEFQDVYLVMELMDANLCQVIQMELDHERMSYLLYQMLCGIKHLHSAGIIHRDLKPSNIVVKSDCTLKILDFGLARTAGTSFMMTPYVVTRYYRAPEVILGMGYKENVDIWSVGCIMGEMVRHKILFPGRDYIDQWNKVIEQLGTPCPEFMKKLQPTVRNYVENRPKYAGLTFPKLFPDSLFPADSEHNKLKASQARDLLSKMLVIDPAKRISVDDALQHPYINVWYDPAEVEAPPPQIYDKQLDEREHTIEEWKELIYKEVMNSEEKTKNGVVKGQPSPSGAAVNSSESLPPSSSVNDISSMSTDQTLASDTDSSLEASAGPLGCCR
[1]
  phosphorylation of GST-c-Jun in a kinase reaction with c-Jun and rSAPKβ: GST alone shows no effect.
[2]
  in vitro kinase assay, phosphorylation of protein 2.5: Rat SAPKβ ... phosphorylates protein 2.5
  in vitro phosphorylation assay: hJIP1/IB1 is a substrate for JNK3 in the same in vitro phosphorylation assay
  in vitro phosphorylation of a GST c-Jun fusion protein: this protein greatly reduces phosphorylation of a GST c-Jun fusion protein in a concentration dependent manner
  phosphorylation of GST-c-Jun in a kinase reaction with c-Jun and rSAPKβ: protein 2.5 shows a dose-dependent inhibition of phosphorylation of GST-c-Jun
